Sequences and labels used below:
B2: Drosophila melanogaster Mon1 (natural protein)
chain: MEVEQTSVRSDTNSTCEYLDAEGDPESPNLYQEADPDQEAEQQNHSIISELRDGLGTMRDNSALSPEPGQENKGLAASVESLALSTSTSAKTEDSIGGGLEEEYDYQHDSLWQGQKKHIFILSEAGKPIFSLHGNEDKLATLFGVIQALVSFVQMGQDAITSIHAGGIKFAFMQRSSLILVAASRSNMSVQQLQLQLGDVYNQILSILTYSHMTKIFERRKNFDLRRLLSGSERLFYNLLANDSSSAKVSNNIFTFLTNSIRVFPLPTTIRSQITSAIQSNCSKIKNLVFAVLIANNKLIALVRMKKYSIHPADLRLIFNLVECSESFKSSENWSPICLPKFDMNGYLHAHVSYLADDCQACLLLLSVDRDAFFTLAEAKAKITEKLRKSHCLEAINEELQQPFNAKLYQQVVGIPELRHFLYKPKSTAQLLCPMLRHPYKSLTELERLEAIYCDLLHRIHNSSRPLKLIYEMKEREVVLAWATGTYELYAIFEPVVDKATVIKYVDKLIKWIEKEYDVYFIRNHATF

In test [1] the target is B2. The experiment in a line: cryo-EM structure.
Test [2] has as its target T1, Drosophila melanogaster RMC1 (Drosophila melanogaster, UniProt Q9VRX1 1-642).
T1 sequence: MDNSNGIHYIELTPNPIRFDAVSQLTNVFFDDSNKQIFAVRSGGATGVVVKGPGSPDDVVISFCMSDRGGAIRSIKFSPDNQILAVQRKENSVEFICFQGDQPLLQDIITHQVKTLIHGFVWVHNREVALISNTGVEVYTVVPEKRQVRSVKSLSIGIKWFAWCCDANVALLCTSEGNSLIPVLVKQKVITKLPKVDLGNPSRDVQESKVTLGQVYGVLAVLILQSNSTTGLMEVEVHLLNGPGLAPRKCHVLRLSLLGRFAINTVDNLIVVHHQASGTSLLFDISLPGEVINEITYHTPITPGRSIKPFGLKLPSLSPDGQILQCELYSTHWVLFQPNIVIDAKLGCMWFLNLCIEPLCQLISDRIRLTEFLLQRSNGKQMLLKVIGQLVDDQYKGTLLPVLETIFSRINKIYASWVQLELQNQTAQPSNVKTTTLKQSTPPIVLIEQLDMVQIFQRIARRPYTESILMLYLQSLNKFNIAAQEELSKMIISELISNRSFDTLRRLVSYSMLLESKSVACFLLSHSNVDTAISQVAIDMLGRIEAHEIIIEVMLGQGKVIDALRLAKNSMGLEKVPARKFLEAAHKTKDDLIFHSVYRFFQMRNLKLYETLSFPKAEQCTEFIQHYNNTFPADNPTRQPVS
The experiment in a line: cryo-EM structure.

B1: Drosophila melanogaster Ccz1 (natural protein)
chain: MAKLLQRVEITLRSFYIFNSTFGQVEGEEHKKVLFYHPNDIELNTKIKDVGLSEAIIRFTGTFTSEDDCQALHTQKTTQLFYQPEPGYWLVLVLNVPKEVRLKEGVEVADYRGAEISDRIYRAILRQCYQMFRFQNGCFSSCGSEEPNPDKRRELLCQKLLQFYDQHLTNLRDPAQCDIIDMLHSIQYLPLDKTLFLRAQNFGTLCETFPDIKESIMLYQEQVLCGGKLSPEDLHCVHSYVVQHVLKVEASSSTIAVSPSLKRSISECQVGGFVRSRQKVAGDEHDAVNEEDHPMKVYVTLDKEAKPYYLLIYRALHITLCLFLNADQVAPKQDLYDDLHAYMAPQLTSLARDISSELTKEAVGAAGQDNSSGNSETAPKYLFINEQSLQHHTNFQRHLPQGLPRNVLSIIADLANGSGKAEMESAPAEEVQVKTTNDYWIVKRRCNYRQYYVILCNSKATLLDVTQEARRIFEQELTDDVFFDK
For B1, the binding result in test [1] and in test [2] was “binds” in each case.
Turning to B2, the binding result in test [2] is on record as “binds”.
